From US20160131656A1 (EXTERNAUTICS S P A, published 2016) come the findings set out here.

In general, Kd refers to the equilibrium constant for the complex coming apart. By koff is commonly meant the first-order rate constant of dissociation. Usually kon stands for the second-order rate constant of association.

B1: anti-FAT1 monoclonal antibody mAb91.3 (antibody, V domains shown)
VH: VQLQQSGSELVRPGASVKLSCKASGYTFTRSWMHWIKQRPGQGLEWIGNIYPGSGGTNYDEKFKSKATLTVDTSSSTAYMQLSSLTSEDSAIYYCTRSGGQRFDYWGQGTTLTVSS
VL: IVMTQSPAIMSAFSGEKVTMTCSASSSVSSMHWYQQKSSTSPKFWIYDTSKLASGVPGRFSGSGSGNSYSLTISSMEAEDVATYYCFQGSGYPFTFGGGTKLEIKR
notes: Mouse hybridoma antibody, subclass IgG1k; also called anti-FAT1 mAb91.3; the anti-FAT1 monoclonal antibody
B2: FAT1 25 mer Peptide 1 (peptide)
peptide: REPLYHVIATDKDEGPNAEISYSIE
notes: Made by chemical synthesis
B3: FAT1 25 mer Peptide 3 (peptide)
peptide: IQVEATDKDLGPNGHVTYSIVTDTD
notes: Made by chemical synthesis
B4: FAT1 25 mer Peptide 2 (peptide)
peptide: YHVIATDKDEGPNAEISYSIEDGNE
notes: Made by chemical synthesis

Experiment [1] concerns the target T1, FAT1 recombinant cadherin Domain 12 (amino acid 1246 to 1352) (human, UniProt Q14517 1250-1344, limits assumed).
T1 construct: Recombinant form purified from E. coli, used in ELISA, SPR and Western blot; Any tag is not described; also called FAT Domain 12
T1 sequence: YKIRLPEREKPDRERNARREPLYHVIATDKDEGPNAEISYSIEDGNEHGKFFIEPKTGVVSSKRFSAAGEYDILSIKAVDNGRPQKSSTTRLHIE
In words: SPR, Biacore T100, 25 C, FAT1 domain amine-coupled to CM5 chip, mAb91.3 injected, 1:1 Langmuir model. Here is the method:
(§1) The kinetics of association and dissociation and the Dissociation constants of the anti-FAT1 mAb91.3 were determined using Surface Plasmon Resonance Analysis. Experiments were performed at 25° C. with a BIACORE T100 instrument (Biacore A B, Uppsala, Sweden). The recombinant FAT1 proteins were immobilised on a carboxymethylated dextran-coated (CM5) sensor chip by amine coupling. Briefly, a mixture of 0.2 M 1-ethyl-3-[…]-carbodiimide (EDC) and 0.05 M N-hydroxysuccinimide (NHS) was used for sensor chip surface activation. Proteins pre-concentrated in 0.01 M sodium acetate pH 3.5 were injected at concentration ranging from 2.5 and 5 μg/ml for 10 min and then 1 M ethanolamine pH 8.5 was used to block any remaining activated groups. mAb91.3 was diluted in HBS-EP+buffer at different concentrations from 0.625 μg/ml to 5 μg/ml and injected for 120 s at a flow rate of […] on flow cell 2 and 3. HBS-EP+ buffer was run as control.

Experiment [2] has as its target T2, FAT1 recombinant cadherin Domain 8 (amino acid 823 to amino acid 927) (human, UniProt Q14517 826-923, limits assumed).
T2 construct: Recombinant form purified from E. coli, used in ELISA and SPR; Any tag is not described; A His6-V5 tagged version was also expressed in transfected HeLa and HEK-293T cells for Western blot; also called FAT Domain 8
T2 sequence: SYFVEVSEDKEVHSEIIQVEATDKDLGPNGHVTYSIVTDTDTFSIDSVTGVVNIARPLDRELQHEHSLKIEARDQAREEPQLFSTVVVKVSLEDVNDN
The experiment is described as above. The protocol:
as §1

The target in experiment [3] is B2. The experiment is described as follows: ELISA with 25 mer peptides. The protocol:
(§2) For ELISA competition experiments, ELISA plates (Nunc Maxisorp) were coated with 1 μg of the FAT1 recombinant proteins in PBS (pH 7.4) at 4° C. overnight. The plates were washed, treated for 1 h at 37° C. with PBS-1% BSA, and 100 μl aliquots of mAb91.3 at (10 micrograms/ml) in PBS-0.1% Tween were added to the wells in the presence of the 25 mer peptides at concentration ranging from 0.001 to 100 micrograms/ml. After incubation for 2 h at 37° C., plates were again washed and incubated for 1 h at 37° C. with alkaline-phosphatase conjugated goat anti-mouse IgG (Sigma) diluted 1:2500 in PBS-Tween. Thereafter 100 μl of PNPP substrate (Sigma) were added to the samples and incubated for 30 min at room temperature and optical densities were read at 405 nm.
On the technique in general: In an ELISA, binding on a coated surface is turned into a signal by an enzyme label.

Experiment [4] concerns the target B3. The experiment is described as follows: ELISA with 25 mer peptides. Here is the method:
as §2

The target of experiment [5] is B4. The experiment is described as follows: ELISA with 25 mer peptides. Here is the method: as §2
Experiment [6] deals with B1. The experiment is described as follows: FACS competition on HCT-15 cells: mAb91.3 incubated with rising peptide concentration; blocked partner is FAT1 on the cell surface. Here is the method:
For Flow Cytometry analysis, cells (2×10⁴ per well) were pelleted in 96 U-bottom microplates by centrifugation at 200× g for 5 min at 4° C. and incubated for 1 hour at 4° C. with the appropriate dilutions of anti-FAT1-monoclonal antibody. The cells were washed twice in PBS-5% FCS and incubated for 20 min with the appropriate dilution of R-Phycoerythrin (PE)-conjugated secondary antibodies (Jackson Immuno Research, PA, USA) at 4° C. After washing, cells were analysed by a FACS Canto II flow cytometer (Becton Dickinson). Data were analyzed with FlowJo 8.3.3 program.

On to B1, for which the Kd in experiment [1] amounted to 18.2 nM; in experiment [2], 9.52 nM. The values for the koff in experiment [1] and in experiment [2] were 0.00707 s⁻¹ and 0.00313 s⁻¹, respectively. The kon in experiment [1] was determined as 389000 M⁻¹ s⁻¹; in experiment [2] it was 329000 M⁻¹ s⁻¹. Besides, the binding result in experiment [3], in experiment [4] and in experiment [5] was “binds” throughout.

On to B2, for which the “IC50 (read off the curve)” value in experiment [6] is ~0.5 µg/mL.

B3: the binding result in experiment [6] is on record as “binds”.

Regarding B4, the binding result in experiment [6] is on record as “binds”.
